Experimental data from PMC3184076 (PLoS ONE, 2011).

Tests used:
JR-FL gp140 = biological target: T1, JR-FL gp140 (HIV-1 subtype B, JR-FL, UniProt Q75760, strain); assay: ELISA
T1 construct: also called JR-FL gp140 envelope protein; source: generated as described [41]

[1] = biological target: T2, MPR.03 biotinylated peptide (HIV-1, synthetic MPER sequence, strain …); assay: SPR; conditions: both partners purified
T2 construct: also called MPR.03 peptide; MPER peptide; source: synthetic peptide, bought: CPC Scientific Inc

MPER656 peptide = biological target: T3, MPER656 peptide (HIV-1, strain  (residues …)); assay: SPR; conditions: both partners purified
T3 construct: also called wild type MPER656 peptide
T3 chain: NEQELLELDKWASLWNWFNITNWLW

MPER26 peptide = MPER26 peptide (HIV-1, strain  (residues …, biotin on the N-terminus)); assay: SPR; conditions: both partners purified
Centromere B autoantigen = biological target: T4, Centromere B autoantigen (Homo sapiens (assumed), UniProt P07199); assay: AtheNA Multi-Lyte ANA II Test Kit (autoantigen immunoassay); kit of Zeus Scientific, per the manufacturer's instructions
T4 construct: also called centromere B autoantigens
T4 sequence (P07199 whole entry): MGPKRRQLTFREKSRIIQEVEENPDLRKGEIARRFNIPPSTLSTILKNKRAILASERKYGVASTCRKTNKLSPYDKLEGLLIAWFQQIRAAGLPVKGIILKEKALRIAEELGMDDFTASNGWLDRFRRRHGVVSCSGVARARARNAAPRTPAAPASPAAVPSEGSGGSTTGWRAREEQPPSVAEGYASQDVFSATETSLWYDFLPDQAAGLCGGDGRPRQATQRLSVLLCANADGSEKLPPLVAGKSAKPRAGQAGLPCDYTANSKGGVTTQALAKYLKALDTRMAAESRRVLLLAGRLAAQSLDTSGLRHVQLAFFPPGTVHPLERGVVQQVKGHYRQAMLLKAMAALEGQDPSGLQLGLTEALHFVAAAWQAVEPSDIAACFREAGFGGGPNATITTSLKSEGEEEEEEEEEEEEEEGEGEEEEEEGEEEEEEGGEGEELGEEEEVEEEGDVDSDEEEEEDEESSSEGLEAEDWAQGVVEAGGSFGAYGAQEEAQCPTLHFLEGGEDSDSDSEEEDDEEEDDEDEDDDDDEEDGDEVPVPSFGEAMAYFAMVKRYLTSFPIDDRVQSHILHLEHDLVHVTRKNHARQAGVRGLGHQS

B1: CAP206-CH12 recombinant human monoclonal antibody (antibody, V domains shown)
VH: QVQLVQSGAEVKKPGSSVKLSCKASGGTFGSYSVTWVRQAPGQTFEWVGRIVPWVGVPNYAPKFQGRVTITADKSSTVYMELTSLRFEDTAVYYCATAYEASGLSYYYYMDDWGKGTTVTVSS
VL: EIVLTQSPGTLSLSPGERATLSCRASQSVTSSYLAWFRHKPGQAPRLLIYGASYRGTGIPDRISGSGSGTDFTLTISRLEPEDFAVYYCQHYGGSPGMYTFGQGTRLEIK
notes: also called CAP206-CH12 mAb; CAP-206-CH12 mAb
binding result (JR-FL gp140): no binding
Kd [1]: 7.3 nM
Kd (MPER656 peptide): 5.15 nM
Kd (MPER26 peptide): 4.95 nM
binding result (Centromere B autoantigen): binds
